The target of assay [1] is Hex2, protein encoded by hex2 of Micrococcus luteus B-P 26 (Micrococcus luteus B-P 26).
Assay [2] has as its target polypeptide Hex3, polypeptide of subunit (B) of the hexaprenyl diphosphate synthetase of Micrococcus luteus B-P 26 (Micrococcus luteus B-P 26).
Assay [3] concerns the target polypeptide Hep2, subunit of the thermoresistant heptaprenyl diphosphate synthetase of Bacillus stearothermophilus (ATCC 10149) (Bacillus stearothermophilus (ATCC 10149)).
Assay [4] addresses polypeptide GERC3, subunit of the heptaprenyl diphosphate synthetase of Bacillus subtilis (ATCC 6633) (Bacillus subtilis (ATCC 6633)) (UniProt P31114).

Consider “polypeptide Hex1, polypeptide of subunit (A) of the hexaprenyl diphosphate synthetase of Micrococcus luteus B-P 26 (enzyme)”, for which the Activity (dpm), prenyl diphosphate (HexPP) synthetase activity of mixed crude homogenates in assay [1] was 0 dpm; in assay [2], 2920 dpm.

For “polypeptide GERC1, subunit of the heptaprenyl diphosphate synthetase of Bacillus subtilis (ATCC 6633) (enzyme)”, the Activity (dpm), HepPS activity of proteins mixed in equal amounts in assay [3] came to 7920 dpm; in assay [4] it was 136 dpm. Turning to “polypeptide Hep1, subunit of the heptaprenyl diphosphate synthetase of Bacillus stearothermophilus (ATCC 10149) (from UniProt P55784) (enzyme)”, in assay [3], the Activity (dpm), HepPS activity of proteins mixed in equal amounts came out at 0 dpm. In the case of “Hex2, protein encoded by hex2 of Micrococcus luteus B-P 26”, in assay [2], the Activity (dpm), prenyl diphosphate (HexPP) synthetase activity of mixed crude homogenates came out at 0 dpm.

The values above are taken from patent publication US6071733.
